How the values were obtained:
Assay in all cases: FP
[1] = biological target: fluorescently labeled histone H4 tail peptide, monomethylated at K20 (UniProt P62805, monomethyl-lysine at K20; fluorescent label (position not given))
[2] = biological target: fluorescently labeled histone H3 tail peptide, dimethylated at K4 (UniProt P68431, dimethyl-lysine at K4; fluorescent label (position not given))
[3] = biological target: fluorescently labeled histone H3 tail peptide, dimethylated at K27 (UniProt P68431, dimethyl-lysine at K27; fluorescent label (position not given))
[4] = biological target: fluorescently labeled histone H4 tail peptide, dimethylated at K20 (UniProt P62805, dimethyl-lysine at K20; fluorescent label (position not given))
[5] = biological target: fluorescently labeled histone H3 tail peptide, monomethylated at K9 (UniProt P68431, monomethyl-lysine at K9; fluorescent label (position not given))
[6] = biological target: fluorescently labeled histone H3 tail peptide, dimethylated at K9 (UniProt P68431, dimethyl-lysine at K9; fluorescent label (position not given))
[7] = biological target: fluorescently labeled histone H3 tail peptide, monomethylated at K4 (UniProt P68431, monomethyl-lysine at K4; fluorescent label (position not given))
[8] = biological target: fluorescently labeled histone H4 tail peptide, trimethylated at K20 (UniProt P62805, trimethyl-lysine at K20; fluorescent label (position not given))
[9] = biological target: fluorescently labeled histone H3 tail peptide, monomethylated at K27 (UniProt P68431, monomethyl-lysine at K27; fluorescent label (position not given))
[10] = biological target: fluorescently labeled histone H4 tail peptide, K20 unmodified (UniProt P62805, fluorescent label (position not given))

B1: human MBTD1 (Malignant Brain Tumor domain-containing protein 1) fragment composed of all four MBT repeats (residues 130-566) (domain or fragment)
chain: AKTKAAVSMEGFSWGNYINSNSFIAAPVTCFKHAPMGTCWGDISENVRVEVPNTDCSLPTKVFWIAGIVKLAGYNALLRYEGFENDSGLDFWCNICGSDIHPVGWCAASGKPLVPPRTIQHKYTNWKAFLVKRLTGAKTLPPDFSQKVSESMQYPFKPCMRVEVVDKRHLCRTRVAVVESVIGGRLRLVYEESEDRTDDFWCHMHSPLIHHIGWSRSIGHRFKRSDITKKQDGHFDTPPHLFAKVKEVDQSGEWFKEGMKLEAIDPLNLSTICVATIRKVLADGFLMIGIDGSEAADGSDWFCYHATSPSIFPVGFCEINMIELTPPRGYTKLPFKWFDYLRETGSIAAPVKLFNKDVPNHGFRVGMKLEAVDLMEPRLICVATVTRIIHRLLRIHFDGWEEEYDQWVDCESPDLYPVGWCQLTGYQLQPPASQSSR
Kd [1]: 7 µM | Kd [2]: 145 µM | Kd [3]: 185 µM | Kd [4]: 13 µM | Kd [5]: 152 µM | Kd [6]: 550 µM | Kd [7]: 126 µM | Kd [8]: 680 µM | Kd [9]: 244 µM | Kd [10]: 480 µM
